Assay results from paper PMC5665649 (eLife, 2017).
Like-named read-outs stand apart in the source and are kept apart here.

Assays:
[1] = biological target: EGFP-GluA1 amino terminal domain fusion protein (UniProt P19490); assay: AUC; FDS-SV titration for hetero-dimerization: constant low concentration (50 pM-1 nM) of the ATD carrying the fluorophore, unlabeled partner from 0.2 nM up to µM; sw isotherm fit with coupled competitive homo- and hetero-dimerization model, homodimer KD fixed; 20 °C, 50,000 rpm, 0.1 mg/mL BSA
[2] = biological target: GluA2 amino terminal domain (ATD), DyLight 488-labeled; assay: AUC; homodimer KD of GluA2 as given in Table 2 under UL GluA2 and DL-GluA2; the experiment itself is not described in this paper
[3] = biological target: GluA2 amino terminal domain (ATD), DyLight 488-labeled; assay: AUC; direct Lamm equation fits, done here, of previously reported SV data for GluA2 (Zhao et al., 2013d) and GluA3 (Zhao et al., 2012); homodimer
[4] = biological target: EGFP-GluA4 amino terminal domain fusion protein (UniProt P19493); assay: AUC; FDS-SV titration for hetero-dimerization: constant low concentration (50 pM-1 nM) of the ATD carrying the fluorophore, unlabeled partner from 0.2 nM up to µM; sw isotherm fit with coupled competitive homo- and hetero-dimerization model, homodimer KD fixed; 20 °C, 50,000 rpm, 0.1 mg/mL BSA
[5] = biological target: GluA2 amino terminal domain (ATD), DyLight 488-labeled; assay: as above
[6] = biological target: GluA3 amino terminal domain (ATD), unlabeled; assay: AUC; direct Lamm equation fits, done here, of previously reported SV data for GluA2 (Zhao et al., 2013d) and GluA3 (Zhao et al., 2012); homodimer
[7] = biological target: GluK1 amino terminal domain (ATD) G213N/M215T, DyLight 488-labeled; assay: AUC; fluorescence-detected sedimentation velocity (FDS-SV), tracer titration for self-association: 0.2-1 nM DyLight 488-labeled ATD with a series of the same unlabeled ATD; sw isotherm fit with monomer-dimer model (dimer to monomers); 20 °C, 50,000 rpm, 0.1 mg/mL BSA
[8] = biological target: GluK2 ATD (Rattus norvegicus) (UniProt P42260); conditions: cited from earlier work
[9] = biological target: GluK4 amino terminal domain (ATD), unlabeled (UniProt Q01812); assay: AUC; sedimentation velocity with absorbance detection at 280 nm, unlabeled GluK4 0.3-29 µM; 20 °C, 50,000 rpm
[10] = biological target: GluK2 amino terminal domain (ATD) G215N/M217T, DyLight 488-labeled (UniProt P42260); assay: AUC; FDS-SV titration for hetero-dimerization: constant low concentration (50 pM-1 nM) of the ATD carrying the fluorophore, unlabeled partner from 0.2 nM up to µM; sw isotherm fit with coupled competitive homo- and hetero-dimerization model, homodimer KD fixed; 20 °C, 50,000 rpm, 0.1 mg/mL BSA
[11] = biological target: GluK1 amino terminal domain (ATD) G213N/M215T, DyLight 488-labeled; assay: as above
[12] = biological target: GluK5 ATD (Rattus norvegicus) (UniProt Q63273); conditions: cited from earlier work
[13] = biological target: the molecule itself; assay: AUC; FDS-SV, dilution series of the fluorescent protein alone (DyLight 488-GluK3 50 pM-1.2 µM; EGFP-GluA1 100 pM-1.2 µM; EGFP-GluA4 500 pM-1.2 µM); c(s) and sw isotherm, monomer-dimer model (dimer to monomers); 20 °C, 50,000 rpm, 0.1 mg/mL BSA
[14] = biological target: the molecule itself; assay: as above; remark: listed apart in the source
[15] = biological target: the molecule itself; assay: as above; remark: listed apart in the source
[16] = biological target: T1, GluK5 amino terminal domain (ATD), DyLight 488-labeled; assay: AUC; FDS-SV titration for hetero-dimerization: constant low concentration (50 pM-1 nM) of the ATD carrying the fluorophore, unlabeled partner from 0.2 nM up to µM; sw isotherm fit with coupled competitive homo- and hetero-dimerization model, homodimer KD fixed; 20 °C, 50,000 rpm, 0.1 mg/mL BSA
T1 sequence (Q63273 whole entry, species assumed, looked up): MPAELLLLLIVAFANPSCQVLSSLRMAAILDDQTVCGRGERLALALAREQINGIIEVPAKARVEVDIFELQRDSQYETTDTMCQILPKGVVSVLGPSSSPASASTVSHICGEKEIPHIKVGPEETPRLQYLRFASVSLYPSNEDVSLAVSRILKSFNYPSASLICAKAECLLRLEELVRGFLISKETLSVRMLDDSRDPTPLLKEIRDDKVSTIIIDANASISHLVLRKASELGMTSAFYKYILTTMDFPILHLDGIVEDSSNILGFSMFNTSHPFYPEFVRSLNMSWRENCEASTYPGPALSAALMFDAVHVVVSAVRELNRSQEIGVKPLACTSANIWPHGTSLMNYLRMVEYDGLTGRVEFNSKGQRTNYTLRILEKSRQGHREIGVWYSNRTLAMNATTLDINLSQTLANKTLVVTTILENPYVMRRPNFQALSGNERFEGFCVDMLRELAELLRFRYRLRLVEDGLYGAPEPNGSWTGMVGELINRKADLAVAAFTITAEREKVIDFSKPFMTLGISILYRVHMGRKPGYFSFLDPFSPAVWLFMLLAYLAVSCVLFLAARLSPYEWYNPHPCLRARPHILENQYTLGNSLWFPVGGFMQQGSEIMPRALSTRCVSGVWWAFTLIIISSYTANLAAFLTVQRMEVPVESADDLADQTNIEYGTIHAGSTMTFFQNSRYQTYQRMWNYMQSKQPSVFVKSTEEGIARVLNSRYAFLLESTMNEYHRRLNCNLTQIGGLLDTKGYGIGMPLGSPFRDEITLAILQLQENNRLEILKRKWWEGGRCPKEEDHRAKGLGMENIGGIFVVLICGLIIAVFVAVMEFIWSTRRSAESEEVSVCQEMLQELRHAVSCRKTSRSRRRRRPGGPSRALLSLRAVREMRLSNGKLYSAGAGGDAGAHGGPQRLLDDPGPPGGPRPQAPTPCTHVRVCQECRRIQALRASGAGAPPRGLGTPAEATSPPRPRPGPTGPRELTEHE

[17] = biological target: T2, GluK2 amino terminal domain (ATD) G215N/M217T, DyLight 488-labeled (UniProt P42260 32-420, G215N | M217T, DyLight 488 (NHS ester-activated), labeling ratios typically 0.9-1.3, sites not stated); assay: AUC; fluorescence-detected sedimentation velocity (FDS-SV), tracer titration for self-association: 0.2-1 nM DyLight 488-labeled ATD with a series of the same unlabeled ATD; sw isotherm fit with monomer-dimer model (dimer to monomers); 20 °C, 50,000 rpm, 0.1 mg/mL BSA; conditions: both partners purified
T2 construct: signal peptide in the construct; GluK2 kainate receptor ATD cDNA with native signal peptide, last residue Lys389; N-linked glycosylation site inserted in the lateral face; Same construct as m3, chemically labeled; also called DL-GluK2; DyLight 488-labeled GluK2; source: HEK cell suspension cultures, transient transfection (PEI), secreted into medium; purified (Ni2+ HiTrap chelating, thrombin …)
T2 sequence (looked up): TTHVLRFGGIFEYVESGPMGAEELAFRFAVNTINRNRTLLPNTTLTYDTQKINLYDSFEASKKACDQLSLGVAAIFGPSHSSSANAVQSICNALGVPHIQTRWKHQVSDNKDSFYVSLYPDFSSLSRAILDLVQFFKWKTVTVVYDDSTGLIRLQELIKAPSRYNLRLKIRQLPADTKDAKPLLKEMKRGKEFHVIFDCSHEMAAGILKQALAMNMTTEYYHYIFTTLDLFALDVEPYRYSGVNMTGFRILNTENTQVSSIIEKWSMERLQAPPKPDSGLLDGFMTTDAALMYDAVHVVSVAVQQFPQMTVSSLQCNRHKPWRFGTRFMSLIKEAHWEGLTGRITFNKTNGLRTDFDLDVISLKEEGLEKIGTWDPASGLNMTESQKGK

Sequence of EGFP-GluA4 amino terminal domain fusion protein (P19493 21-413): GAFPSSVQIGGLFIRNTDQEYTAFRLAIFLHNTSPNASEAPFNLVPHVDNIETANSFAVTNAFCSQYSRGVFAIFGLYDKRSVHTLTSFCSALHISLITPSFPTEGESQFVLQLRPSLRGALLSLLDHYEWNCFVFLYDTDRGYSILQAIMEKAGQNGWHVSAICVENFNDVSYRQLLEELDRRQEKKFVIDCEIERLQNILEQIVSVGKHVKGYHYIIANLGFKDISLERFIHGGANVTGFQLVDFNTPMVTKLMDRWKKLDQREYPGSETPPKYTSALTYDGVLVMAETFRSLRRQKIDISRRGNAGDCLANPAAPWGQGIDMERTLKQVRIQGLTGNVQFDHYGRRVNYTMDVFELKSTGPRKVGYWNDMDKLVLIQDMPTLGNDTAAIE

GluA2 amino terminal domain (ATD), unlabeled (domain or fragment)
Kd [1]: 0.0029 µM
Kd [2]: 0.0211 µM
koff [3]: > 0.003 s⁻¹
kon [3]: > 140000 M⁻¹ s⁻¹

GluA3 amino terminal domain (ATD), unlabeled (domain or fragment)
Kd [1]: 0.0083 µM
Kd [4]: 0.091 µM
Kd [5]: 0.0013 µM
koff [6]: > 0.003 s⁻¹

GluK1 amino terminal domain (ATD) G213N/M215T, unlabeled (domain or fragment)
Kd [7]: 1.2 µM

GluK2 ATD (from UniProt P42260)
Kd [8]: 0.25 µM

GluK4 amino terminal domain (ATD), unlabeled (from UniProt Q01812 21-399) (domain or fragment)
Kd [9]: > 1000 µM
Kd [10]: 0.057 µM
Kd [11]: 0.146 µM

GluK5 ATD (from UniProt Q63273)
Kd [12]: 350 µM

GluK5 amino terminal domain (ATD), unlabeled (domain or fragment)
Kd [10]: 0.012 µM
Kd [11]: 0.018 µM

B1: EGFP-GluA1 amino terminal domain fusion protein (domain or fragment, UniProt P19490 19-21, looked up)
chain: VGANFPNNIQIGGLFPNQQSQEHAAFRFALSQLTEPPKLLPQIDIVNISDSFEMTYRFCSQFSKGVYAIFGFYERRTVNMLTSFCGALHVCFITPSFPVDTSNQFVLQLRPELQEALISIIDHYKWQTFVYIYDADRGLSVLQRVLDTAAEKNWQVTAVNILTTTEEGYRMLFQDLEKKKERLVVVDCESERLNAILGQIVKLEKNGIGYHYILANLGFMDIDLNKFKESGANVTGFQLVNYTDTIPARIMQQWRTSDSRDHTRVDWKRPKYTSALTYDGVKVMAEAFQSLRRQRIDISRRGNAGDCLANPAVPWGQGIDIQRALQQVRFEGLTGNVQFNEKGRRTNYTLHVIEMKHDGIRKIGYWNEDDKFVPAATDAQAGGDNSSVQ
notes: signal peptide in the construct; GluA1 signal peptide and ATD, residues Met1-Phe21, before SGSG-EGFP; GluA1 AMPA receptor ATD, residues Val17-Gln405, after EGFP-SGSG; The two printed ranges overlap (17-21); also called GluA1 ATD-EGFP; GluA1-EGFP fusion protein; source: Sf9 insect cells, baculovirus (pFastBac1), secreted into medium; purified (Ni2+ HiTrap chelating, thrombin digestion, ion …)
Kd [13]: 0.0284 µM

B2: GluK3 amino terminal domain (ATD) T221N/Y223S, DyLight 488-labeled (domain or fragment, UniProt P42264 32-423, looked up)
chain: MPHVIRIGGIFEYADGPNAQVMNAEEHAFRFSANIINRNRTLLPNTTLTYDIQRIHFHDSFEATKKACDQLALGVVAIFGPSQGSCTNAVQSICNALEVPHIQLRWKHHPLDNKDTFYVNLYPDYASLSHAILDLVQSLKWRSATVVYDDSTGLIRLQELIMAPSRYNIRLKIRQLPIDSDDSRPLLKEMKRGREFRIIFDCSHTMAAQILKQAMAMGMMNESYHFIFTTLDLYALDLEPYRYSGVNLTGFRILNVDNAHVSAIVEKWSMERLQAAPRAESGLLDGVMMTDAALLYDAVHIVSVCYQRASQMTVNSLQCHRHKPWRFGGRFMNFIKEAQWEGLTGRIVFNKTSGLRTDFDLDIISLKEDGLEKVGVWSPADGLNITEVAKGR
modifications: DyLight 488 (NHS ester-activated), labeling ratios typically 0.9-1.3, sites not stated
notes: signal peptide in the construct; GluK3 kainate receptor ATD cDNA with native signal peptide, last residue Arg392; N-linked glycosylation site inserted in the lateral face; also called DL-GluK3; DL GluK3; source: HEK cell suspension cultures, transient transfection (PEI), secreted into medium; purified (Ni2+ HiTrap chelating, thrombin digestion, ion exchange); labeled, Superdex 75
stoichiometry N [14]: 2
Kd [15]: < 0.05 nM

B3: GluK2 amino terminal domain (ATD) G215N/M217T, unlabeled (domain or fragment, UniProt P42260 32-420, looked up)
chain: TTHVLRFGGIFEYVESGPMGAEELAFRFAVNTINRNRTLLPNTTLTYDTQKINLYDSFEASKKACDQLSLGVAAIFGPSHSSSANAVQSICNALGVPHIQTRWKHQVSDNKDSFYVSLYPDFSSLSRAILDLVQFFKWKTVTVVYDDSTGLIRLQELIKAPSRYNLRLKIRQLPADTKDAKPLLKEMKRGKEFHVIFDCSHEMAAGILKQALAMNMTTEYYHYIFTTLDLFALDVEPYRYSGVNMTGFRILNTENTQVSSIIEKWSMERLQAPPKPDSGLLDGFMTTDAALMYDAVHVVSVAVQQFPQMTVSSLQCNRHKPWRFGTRFMSLIKEAHWEGLTGRITFNKTNGLRTDFDLDVISLKEEGLEKIGTWDPASGLNMTESQKGK
notes: signal peptide in the construct; GluK2 kainate receptor ATD cDNA with native signal peptide, last residue Lys389; N-linked glycosylation site inserted in the lateral face; also called UL GluK2; GluK2 ATD; source: HEK cell suspension cultures, transient transfection (PEI), secreted into medium; purified (Ni2+ HiTrap chelating, thrombin digestion, ion exchange)
Kd [11]: 1.8 µM
Kd [16]: 0.0094 µM
Kd [17]: 0.163 µM
